Experimental findings from the DeepSol protein solubility set are described below.

This data set in a line: soluble on expression in E. coli; label from the status in PepcDB or PDB records.
“MCLIVFAWRPGHALPLIVAANRDEFYARPTQPLAAWEDAPGVHAGRDLEAGGTWLGVGPQGRFAALTNIRDPGQAQGPRSRGELVAAFLQGELGVGAYLDQVASRSGQYSGFNLLVGDGQRLGYLHAREATPRLLKAGVYGLSNAGLDTPWPKLVKARDGLENLLDTPEPHRLLALLADNEPAADGDLPETGVGLATEKLLSSVFIASQNYGTRASTVLIVDDQGQRRLVERSFGPFGGHLGEIELLVLEHHHHHH”: the “soluble on expression in E. coli” value was “soluble”.
Consider “MTNIIKIRASVFIPMSWTEAKMDMETGQVIQFEGDSREFTPHAVNTMRSRVEQEVVVDFYKQEVFSYANTGITTEKVISPDGSVNKRTGKASTENIVCTDIVWNSGGVQFKMSASASNPLNVYAPPVDYVLNVCVKKDGSIDVQGEHDGFPCFEFYKQVDFGPFEKIYTHDFRETGDTAAALGGNMDYSFTKRL”, for which the “soluble on expression in E. coli” value is reported as “soluble”.
Consider “MGSDKIHHHHHHMSELKLPKDDRSIEVYRLSGTPVAVEKRSAADFNRVAFAAAHVVADPFADNDPWLTPAIDWEATLRFRHRLWDLGLGVAEAMDTAQRGMGLAWPQAQELISRSLKEAASRKDALIACGVGTDHLDSGGYDLNQIIDSYLEQLDFVQGEGGRVILMASRALAAAARSPDDYLKAYARVLSRAEQKVVIHWLGEMFDPALKGYWGSGDHMAAMETCLAMIEENAEKIDGIKISLLSKDKEIVMRRRLPAGVRMYTGDDFNYAELIAGDEQGHSDALLGIFDAIAPAASKALASLKRGADNEFFDILEPTVALSRHIFKAPTRFYKTGVVFLAYLNGLQDHFTMVGGQESTRSTQHFTELFRLADKANVLAEPDLATHRMKAFLAVRGIG”, for which the “soluble on expression in E. coli” value is “not soluble”.
On to “AHHHHHHGSKIAIPTNGGGREDTVAPLFARAPAFYIAEVDEKGNIISEKVIQNPAATAGRGAGPIAVQMLINEGVDTIVAPQVVPNALGAIQAAGIRVYYVTPGTPVEEAIKVATTGQGGQLPSLPQIPTPVTPAPAMYGPVYPPFGWGRGWGKGRGWGRGWGSILGYCPWTGMPSRRALRWYYGWW”, for which the “soluble on expression in E. coli” value is reported as “not soluble”.
As for “MAHHHHHHVREEKLRLRKQIIEHMNSLSKERYTTLSEQIVFSLYEQKEWAEAKTIGITLSMENEVNTYPIIEKAWKEGKRVVVPKCNKETRTMSFRQISNFDQLETVYMNLREPIPALTEEVNADEIDLQIVPGVAYTERGERIGYGGGYYDRYLVHYKGKTLSLAYSFQMVEHIPVEPFDKNVEKIITEKGTMVKNGLV”, the “soluble on expression in E. coli” value is “soluble”.
With “MGIAEWRYQDVPEKLWPIQPLRDFWGINKRTEKKLNKRGIFTIGDLAKYPYHYLKRDFGVLGIDMHLHANGIDQSKLEHHHHHH”, the “soluble on expression in E. coli” value was “not soluble”.
Consider “MLSSKEVYARLDAILPSSVDREDAESNLNAGEIEYAITALLDDAYTSVGLSDAVVSLIRENYDDGPVIDMLDALLYFQKLNSGGDAVRMQR”, for which the “soluble on expression in E. coli” value was “not soluble”.
Consider “MGSDKIHHHHHHKSISNKLVVFDDKEQVIQYSSNSIPVKIELYSKRWGKTSITYNNSLKEFWDIVESMPRSKNFYGSTKIENSPNDIIGTIFYLNGKRSTMCLNHNLKIDDSYYGGERGYAYINRLRNYINDIMCTPSMLASIVNDKNKVIIEDKLSEASKCGSNDKTLIKNEITKLRRISNNEKLQKTITSKGKLNYHIKIYMENSNGSNINLSKIKQDNYDIISISVYENNCAVIRDYGNDTVDTFCMEGNLTNVCKSILKR”, for which the “soluble on expression in E. coli” value is “not soluble”.
With “GMTKAREFLGTGWKFPVAAGADGAMVLSSAEEDIAESIRIILGTARGERVMRPDFGCGIHDRVFSVINTTTLGLIENEVKEALILWEPRIELLSVTASPREAAEGRLLIDIEYRVRSTNTRFNLVYPFYLKESA” the entry was “soluble”.
Next, “IGKVNYNIGFNLSDNRAKVISYPNASKALWDSNGNTLYYNGMTIGEIWGYETEGIAKTDAQMTEWLASNDQSKIGSVWGAGDIMYRDLNGDGIVDKGNSTATDHGDLKKIGNSTPRLRFGLSLGADWKGFDIQMFFQGVMKRDLWLSGPMFWGADGGEWQSVGFDEHLDYFRPENTTSIFGANLNSYYPKAYLGDKGNKNKQTQTRYLQNGAYMRMKNLQIGYTFPKAWMNKAKIEKLRIYVSGENLFTISGIADMFDPEATAGNGFSNGKTYPLSKTISFGLNITL”: “not soluble”.
